Patent US12466859B2, “Desmoglein 2 (DSG2) binding proteins and uses therefor” (UNIVERSITY OF WASHINGTON THROUGH ITS CENTER FOR …, priority 2013, dated 2025)
“Also recorded” adds a separate entry of the source.

T1: soluble recombinant DSG2 (Homo sapiens, UniProt Q14126)
T1 construct: Western blot using soluble recombinant DSG2 as a probe; purchased Leinco Technologies, Inc. (St. Louis, MO)
T1 sequence (Q14126 50-609 limits assumed): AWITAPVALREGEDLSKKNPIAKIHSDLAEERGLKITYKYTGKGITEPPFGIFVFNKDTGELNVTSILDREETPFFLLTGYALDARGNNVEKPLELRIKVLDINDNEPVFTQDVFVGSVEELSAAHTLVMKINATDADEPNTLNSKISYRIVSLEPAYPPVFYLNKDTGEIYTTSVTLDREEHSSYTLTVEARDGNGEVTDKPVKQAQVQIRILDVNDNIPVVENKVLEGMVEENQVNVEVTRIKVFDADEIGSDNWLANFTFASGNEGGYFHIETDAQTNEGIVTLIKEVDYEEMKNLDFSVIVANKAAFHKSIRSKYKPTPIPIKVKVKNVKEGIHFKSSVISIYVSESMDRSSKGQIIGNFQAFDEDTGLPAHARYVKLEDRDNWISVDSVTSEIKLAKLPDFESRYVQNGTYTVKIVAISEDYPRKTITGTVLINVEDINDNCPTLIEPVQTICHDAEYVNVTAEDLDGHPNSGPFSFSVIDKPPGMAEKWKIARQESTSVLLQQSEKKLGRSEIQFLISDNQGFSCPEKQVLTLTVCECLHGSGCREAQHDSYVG

B1: D261N (protein)
chain: MKVSALKEKVSALKEKVSALKEKVSALKEKVSALKEGSGGGSGGGSGGGSNSIALKNNTLWTGPKPEANCIIEYGKQNPDSKLTLILVKNGGIVNGYVTLMGASDYVNTLFKNKNVSINVELYFDATGHILPDSSSLKTDLELKYKQTADFSARGFMPSTTAYPFVLPNAGTHNENYIFGQCYYKASNGALFPLEVTVMLNKRLPDSRTSYVMTFLWSLNAGLAPETTQATLITSPFTFSYIREDD
B2: JO-4 (protein)
chain: MKVSALKEKVSALKEKVSALKEKVSALKEKVSALKEGSGGGSGGGSGGGSNSIALKNNTLWTGPKPEANCIIEYGKQNPDSKLTLILVKNGGIVNGYVTLMGASDYVNTLFKNKNVSINVELYFDATGHILPDSSSLKTDLELKYKQTADFSARGFMPSTTAYPFVLPNAGTHNENFIFGQCYYKASDGALFPLEVTVMLNKRLPDSRTSYVMTFLWSLNAGLAPETTQATLITSPFTFSYIREDD

Assays:
[1] = target: T1, soluble recombinant DSG2; assay: Western blot of dimeric Ad3 fiber knob mutants with soluble recombinant DSG2 as probe; format: binding; conditions: dimerized knob mutants compared to JO-1
From the text: FIG. 1A-1F. Residues found to be critically involved in binding to DSG2. FIG. 1A) Shown are the amino acid sequences of the Ad3 and Ad14p1 fiber knob. Beta sheets present in the Ad3 knob (PDB accession number 1H7Z_A) and Ad14 knob (PDB: 3F0Y_A) are indicated by lines. Black arrows indicate residues within the Ad3 fiber knob which, when mutated individually, ablate or reduce binding to DSG2. […] FIG. 1B) Schematic structure of dimeric Ad3 fiber knob mutants. The fiber knob domain and one shaft motif was fused through a flexible linker to a homodimerizing K-coil domain (41). The proteins are self-dimerizing and can be purified by His-Ni-NTA affinity chromatography. FIG. 1C-FIG. 1F) Analysis of binding of dimeric Ad3 fiber knob mutants to soluble DSG2. FIG. 1C and FIG. 1D) Coomassie staining. 10 μg of purified Ad3 fiber knob (unboiled) were loaded per lane. Trimeric forms of the fiber knobs are indicated by an arrow. The gel contained SDS and the loading buffer containing DTT, which caused the disassembly of dimers of trimeric fiber knobs as previously reported (41). FIG. 1E and FIG. 1F): Western blot using soluble recombinant DSG2 as a probe, followed by anti-DSG2-mAb and anti-mouse IgG-HRP. For comparison, JO-1 (0.5 μg/lane) is shown. The Western blots were scanned and signals were quantified.
Western Blot: Mini-PROTEAN precast gels (BIO-RAD, Hercules, CA) with 4-15% gradient polyacrylamide were used. A total of 1 μg protein mixed with 2× loading buffer (10 mM Tris-HCl, pH6.8, 200 mM DTT, 4% SDS, 20% glycerol, 0.2% bromophenol blue) was loaded per lane. Samples were either boiled (B) for 5 min or loaded unboiled (UB). The following running buffer was used: 25 mM Tris, pH8.3, 0.192 M glycine, 0.1% SDS. After electrophoresis, proteins were transferred to nitrocellulose and incubated with recombinant human DSG2 protein and anti-DSG2 antibodies as described previously (42). The Western blots were scanned and quantified using the ImageJ 1.32 software (National Institutes of Health, Bethesda, MD). JO-1 band intensity was set as 100%. […]

[2] = test system: TNBC MDA-MB-231 tumors; assay: Enhancement of nab-paclitaxel/cetuximab therapy in orthotopic TNBC MDA-MB-231 tumors; format: in vivo, CB17 SCID-beige mice; conditions: 2 mg/kg i.v. 1 hour before cetuximab 10 mg/kg i.p. and nab-paclitaxel 5 mg/kg i.v., weekly
Description: FIG. 10A-10C. Combination of affinity-enhanced JO-1 versions with chemotherapy. FIG. 10A) Enhancement of irinotecan (I) therapy. The experimental setting was the same as in FIG. 5B. […] N=5. […] Mammary fat pad tumors were established from primary ovarian cancer ovc316 cells. Treatment was started when tumors reached a volume of 100 mm^3. Mice were injected intravenously with 2 mg/kg JO-1 or with 0.5 mg/kg JO-4, followed by an intravenous injection of PEGylated liposomal doxorubicin (PLD) (1 mg/kg) one hour later. Treatment was repeated weekly. […] A total of 4×10^6 TNBC MDA-MB-231 cells were injected into the mammary fat pad of CB17 SCID-beige mice. JO-4 (2 mg/kg) was intravenously injected 1 hour before the application of cetuximab (C) (10 mg/kg, i.p.) and nab-paclitaxel (nab-P) (5 mg/kg, i.v.). Treatment was given weekly. N=10 P<0.01 at day 25 for nab-P+C vs JO-4+nab-P+C.
A549, MDA-MB-231, and ovc316 xenograft tumors were established by injection of the corresponding tumor cells into the mammary fat pad (1:1 with Matrigel) of CB17 mice. TC1-DSG2 tumors were established by subcutaneous injection of TC1-DSG2 cells into DSG2 transgenic mice. […] Tumor volumes were measured three times a week. […]

| Molecule | DSG2 binding in Western blot, in words [1] | Enhancement of nab-paclitaxel/cetuximab therapy [2] |
| --- | --- | --- |
| B1 | almost completely ablated | – |
| B2 | – | significantly increased; also recorded: enhances therapy |
